Biological target: hs12a_human HSPA12A (UniProt O43301)
UniProt O43301, sequence (O43301 whole entry): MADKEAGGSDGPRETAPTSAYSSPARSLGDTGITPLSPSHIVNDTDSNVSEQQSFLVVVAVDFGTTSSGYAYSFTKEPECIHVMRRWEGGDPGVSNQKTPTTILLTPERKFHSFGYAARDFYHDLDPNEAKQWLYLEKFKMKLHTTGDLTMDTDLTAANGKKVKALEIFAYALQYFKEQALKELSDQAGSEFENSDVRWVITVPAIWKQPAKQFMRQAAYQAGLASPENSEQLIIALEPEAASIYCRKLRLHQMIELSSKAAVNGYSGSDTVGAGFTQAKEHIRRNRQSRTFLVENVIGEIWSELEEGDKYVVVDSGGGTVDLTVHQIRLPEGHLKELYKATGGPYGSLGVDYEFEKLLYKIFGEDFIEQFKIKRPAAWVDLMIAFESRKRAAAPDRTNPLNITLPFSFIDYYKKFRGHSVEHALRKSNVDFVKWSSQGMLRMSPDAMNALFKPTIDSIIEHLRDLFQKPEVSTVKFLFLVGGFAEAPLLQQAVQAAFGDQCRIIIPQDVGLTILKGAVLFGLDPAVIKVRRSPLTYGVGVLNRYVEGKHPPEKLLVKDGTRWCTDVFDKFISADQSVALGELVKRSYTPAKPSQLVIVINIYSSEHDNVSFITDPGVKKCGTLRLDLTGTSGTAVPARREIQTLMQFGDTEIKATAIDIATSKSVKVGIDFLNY

Substance | effect of a mutation on the interaction
Sortilin-related receptor (Homo sapiens), Q92673 E2194A;D2195A;D2196A;E2197A;D2198A | disrupting interaction strength
Sortilin-related receptor (Homo sapiens), Q92673 F2205A;S2206A | with no effect
Sortilin-related receptor (Homo sapiens), Q92673 V2209A;P2210A | with no effect

Continued, values first:

effect of a mutation on the interaction | Substance
with no effect | Sortilin-related receptor (Homo sapiens), Q92673 D2190A;D2191A
disrupting interaction strength | Sortilin-related receptor (Homo sapiens), Q92673 D2207A;D2208A
with no effect | Sortilin-related receptor (Homo sapiens), Q92673 T2203A;G2204A
